The source of these data is patent US20210403565A1 (BIOATLA, published 2021).

The target in assay [1] is T1, human CTLA4 expressed on the cell surface of CHO cells (human, UniProt P16410 36-223).
T1 construct: whole, on cells; also called CHO-huCTLA4; huCTLA4
T1 sequence (looked up): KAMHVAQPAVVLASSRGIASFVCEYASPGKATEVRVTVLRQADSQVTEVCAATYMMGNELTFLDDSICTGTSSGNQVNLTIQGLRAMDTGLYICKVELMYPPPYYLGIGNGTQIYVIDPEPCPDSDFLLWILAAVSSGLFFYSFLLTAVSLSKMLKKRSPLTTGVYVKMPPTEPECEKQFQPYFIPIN
Briefly: FACS competition on CHO-huCTLA4: antibody titrated against a fixed concentration of hB7-1 (hCD80), bound hB7-1 detected, % competition, plateau about 97 %; pH 6.0 per the text; unit from the axis CTLA4 Ab concentration Log(ng/mL).

In assay [2] the target is T2, recombinant human CTLA4 extracellular domain (human, UniProt P16410 36-161).
T2 construct: extracellular domain; also called huCTLA-4
T2 sequence (looked up): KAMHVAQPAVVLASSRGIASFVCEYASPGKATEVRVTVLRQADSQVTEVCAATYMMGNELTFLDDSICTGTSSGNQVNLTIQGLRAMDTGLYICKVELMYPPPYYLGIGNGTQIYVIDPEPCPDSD
Briefly: ELISA, immobilised huCTLA-4, pH 6.0, Jun. 27, 2017. The protocol: (§1) EC₅₀ values at pH 6.0 for binding to human CTLA4 were calculated using the nonlinear fit model (variable slope, four parameters) of GraphPad Prism version 7.03.
A general note: An ELISA detects its analyte on a solid surface through an enzyme-linked reagent.

Assay [3] deals with T1, human CTLA4 expressed on the cell …. The experiment in a line: FACS, cells expressing human CTLA4, assay pH 7.4, MFI; lot 6972 control without test buffer; same column repeated in FIG. 10B and FIG. 10C; unit from the axis Log[ng/mL]. The protocol: The amount of bound antibodies was quantified using anti-human IgG antibody conjugated to fluorophores. The MFI in each reaction was proportional to the amount of antibodies bound. The EC₅₀ value (in ng/mL) for binding to human CTLA4 on cells was determined by MFI of the singlets population against antibody concentration with a Prism variable slope of four-parameter dose-response curve, which was calculated using the nonlinear fit (variable slope, four parameters) model built into GraphPad Prism software (version 7.03).
On the technique in general: Flow cytometry measures light scatter and fluorescence of single cells or particles in a stream.

Assay [4] addresses T2, recombinant human CTLA4 extracellular …. Briefly: SPR, human CTLA4 ECD immobilised. The protocol: (§2) The CTLA4 extracellular domain (human or cynomolgus) was immobilized on the surface of a sensor chip. […] The binding kinetics were calculated using a 1:1 Longmuir model built into the analysis software.
For orientation: SPR reads the build-up and loss of mass on a sensor chip optically.

The target of assay [5] is T3, recombinant cynomolgus CTLA4 extracellular domain (cynomolgus, UniProt G7PL88 36-161).
T3 construct: extracellular domain; also called cynoCTLA-4; cynoCTLA4
T3 sequence: T2 sequence (looked up) with S14N, I18T, L106M
The experiment in a line: ELISA, immobilised cynoCTLA-4, pH 6.0, Jun. 27, 2017; ELISA, pH 6.0, Jun. 27, 2017.

In assay [6] the target is T1, human CTLA4 expressed on the cell …. Briefly: FACS, CHO cells expressing human CTLA4 (CHO-huCTLA-4), pH 6.0, MFI; no unit in the table, unit from the axis Log Antibodies [ng/ml]. The protocol:
(§3) The amount of antibodies bound on the cells was quantified using anti-human IgG antibody conjugated to fluorophores. EC₅₀ values at pH 6.0 and 7.4 for binding to cells were calculated using the nonlinear fit (variable slope, four parameters) model built into GraphPad Prism software (version 7.03). The expression levels of human CTLA4 or cynomolgus CTLA4 on the surface of the CHO cells were determined using a BD QuantiBRITE™ PE kit.
(§4) At least two independent duplicate FACS experiments were performed for each antibody using each of the cell lines. The binding activities at different concentrations of the antibodies are plotted in these figures.

Assay [7] deals with T2, recombinant human CTLA4 extracellular …. The experiment in a line: SPR, human CTLA4 ECD immobilised, pH 7.4, run 1. As to the method: as §2
Assay [8] shares this target. The experiment in a line: SPR, human CTLA4 ECD immobilised, pH 6.0, run 1. The protocol: as §2
For assay [9] the target is unchanged. Briefly: ELISA, immobilised huCTLA-4, pH 6.0, Jun. 29, 2017. As to the method: as §1
Assay [10] has the same target. The experiment in a line: ELISA, wells coated with human CTLA4, assay pH 7.4; lot 6978 in His buffer, T0; curve still rising at log 3 (OD450 below 0.2), no plateau; unit from the axis Log[ng/mL]. As to the method:
Both ELISA and FACS analysis were used to measure the binding activity. […] The amount of bound antibodies was quantified using anti-human IgG antibody conjugated to HRP. The absorbance at 450 nm in each measurement was proportional to the amount of antibodies bound. […] EC50 value (in ng/mL) for binding to human CTLA4 was determined by absorbance at 450 nm against antibody concentration with Prism variable slope of four-parameter dose-response curve, which was calculated using the nonlinear fit (variable slope, four parameters) model built into GraphPad Prism software (version 7.03). The buffers tested included His buffer (His), Tris buffer (Tris), Glutamine buffer (Glu) and no buffer.

Assay [11] concerns the target T4, cynomolgus CTLA4 expressed on the cell surface of CHO cells (cynomolgus, UniProt G7PL88 36-223).
T4 construct: whole, on cells; also called CHO-cynoCTLA4
T4 sequence: T1 sequence (looked up) with S14N, I18T, L106M
The experiment in a line: FACS, CHO cells expressing cynomolgus CTLA4 (CHO-cynoCTLA-4), pH 7.4, MFI; curve near baseline up to log 4, about 150000 at log 5, no plateau; no unit in the table, unit from the axis Log Antibodies [ng/ml]. As to the method: as §3, §4

Where a chain is given by its changes, count along the chain named.

B1: BA-087-05-19 (antibody, V domains shown)
VH: EVQLVESGGGLVQPGGSLRLSCAASGFTFSHYTMHWVRQAPGKGLEWVSFISYDGNNKYYADSVKGRFTISRDNSKNTLYLQMNSLRAEDTAVYYCARTGWLGPFDYWGQGTLVTVSS
VL: AIQLTQSPSSLSASVGDRVTITCRASQYVGSSYLAWYLQKPGQSPQLLIYGAFSRATGIPARFSGSGSGTEFTLTISSLQSEDFAVYYCQQDGSSPWTFGQGTKVEIK
notes: Detected with anti-human IgG and a molecular weight of 146 kDa was used in SPR, so it was tested as a whole IgG; also called BA-087-05-019; BA-087-05-19 (# 6972)
For orientation: EC50 means the concentration needed to bring the measured effect to its halfway point. As a reminder, the Kd is a measure of binding affinity in units of concentration. The term koff denotes the rate constant with which the complex falls apart. Usually kon stands for a measure of how fast the partners come together. As to B1, the EC50 in assay [1] is 0.745 µg/mL; in assay [2], 0.00959 µg/mL; in [3], 0.428 µg/mL; in assay [5], 0.0397 µg/mL; in [6], 0.247 µg/mL; in assay [9] it was 0.00659 µg/mL. Also, the “factor by which the binding activity drops from pH 6.0 to pH 7.4” value in [4] is around 2 fold. The Kd in assay [7] is 1.39 nM; in assay [8], 0.472 nM. In addition, the koff in assay [7] amounted to 0.00126 s⁻¹; in assay [8] it was 0.000631 s⁻¹. The values for the on-rate (kon) in assay [7] and in assay [8] were 906000 M⁻¹ s⁻¹ and 1.34e+06 M⁻¹ s⁻¹, respectively.

B2: BA-087-08-32 (antibody, V domains shown)
VH: EVQLVQSGAEVKKPGATVKISCKVSGFTFSHYTMHWIRQSPSRGLEWLGFISYDGNYKYYADSVKGRFTISRDNAKNSLYLQMNSLRAEDTAVYYCARTGWLGPFDYWGQGTLVTVSS
VL: EIVMTQSPATLSVSPGERATLSCRASQSVGSSYLAWYQQKPGKAPKLLIYGAFSRATGVPSRFSGSGSGTDFTLTISSLQPEDFATYYCQQDGSSPWTFGQGTKVEIK
notes: Detected with anti-human IgG and a molecular weight of 146 kDa was used in SPR, so it was tested as a whole IgG; also called BA-087-08-032; BA-087-08-32 (# 6978)
For the molecule B2, the EC50 in assay [1] is 0.567 µg/mL; in assay [2], 0.0146 µg/mL; in assay [10], 0.491 µg/mL; in [11], 83.9 µg/mL; in assay [5], 0.292 µg/mL; in assay [6], 0.168 µg/mL. Further, the EC50 in assay [9] worked out at 0.00857 µg/mL. For the same molecule, the “factor by which the binding activity drops from pH 6.0 to pH 7.4” value in assay [4] was around 100 fold. Moreover, the figures for the Kd in assay [7] and in [8] were 52.5 nM and 0.365 nM, respectively. Besides, the koff was 0.0284 s⁻¹ in assay [7] and 0.0012 s⁻¹ in assay [8]. For the same molecule, the kon in [8] is 3.29e+06 M⁻¹ s⁻¹.
